Reference: patent US20240092919A1
Where a chain is given by its changes, count along the chain named. Each block holds one binder with its values, some of them ahead of it.

Molecular target: human GPC3 on cells (human) (UniProt P51654)
Experiment: cell-based or functional assay

IC50 (M), Incucyte human TDC HepG2-Nuclight green assay, E:T 15:1 (Step 2): 6.11e-10 M
B1: A022600135 (protein)
chain: DVQLVESGGGVVQPGGSLRLSCVASGYVHKINFYGWYRQAPGKEREKVAHISIGDQTDYADSAKGRFTISRDESKNTVYLQMNSLRPEDTALYYCRALSRIWPYDYWGQGTLVTVSSGGGGSEVQLVESGGGLVQPGGSLRLSCVASGSIFRSVFSSSTMEWYRQPPGKKRELVARIAPGDGTNYGALYADSVKGRFTISRDDAKKTVDLQMNSLKPEDTGVYFCASGVAWGQGTLVTVSSGGGGSGGGSEVQLVESGGGLVQPGGSLRLSCVASGFTFSSFAMTWVRRPPGKGLEWVATITNGGVTSYRDSVKGRFTISRDNAKNTLYLEMTSLNPEDTAVYICANARRTGPRAPTDIGSYRGQGTLVTVSSGGGGSGGGGSGGGGSGGGGSGGGGSGGGGSGGGGSEVQLVESGGGVVQPGGSLRLSCAASGFTFRSFGMSWVRQAPGKGPEWVSSISGSGSDTLYADSVKGRFTISRDNSKNTLYLQMNSLRPEDTALYYCTIGGSLSRSSQGTLVTVSSA
Max % Killing, Incucyte human TDC HepG2-Nuclight green assay (Step 2): 91%

HepG2 on Incucyte IC50 (M), human TDC, E:T 15:1, 60 h: 1.92e-09 M | Huh7 on xCELLigence IC50 (M), human TDC, E:T 15:1, 60 h: 8.61e-09 M | IC50 (M), xCELLigence human TDC assay on Hep-G2, E:T 15:1, 60 h: 9.2e-11 M | IC50 (M), xCELLigence human TDC assay on Huh-7, E:T 15:1, 60 h: 4.7e-10 M | IC50 (M), xCELLigence human TDC assay on NCI-H661, E:T 15:1, 75 h: 1.8e-10 M
B2: A022600167 (protein)
chain: DVQLVESGGGVVQPGGSLRLSCVASGYVHKINFYGWYRQAPGKEREKVAHISIGDQTDYADSAKGRFTISRDESKNTVYLQMNSLRPEDTAAYYCRALSRIWPYDYWGQGTLVTVSSGGGGSEVQLVESGGGLVQPGGSLRLSCVASGFTFSSFAMTWVRRPPGKGLEWVATITNGGVTSYRDSVKGRFTISRDNAKNTLYLEMTSLNPEDTAVYICANARRTGPRAPTDIGSYRGQGTLVTVSSGGGGSGGGGSGGGGSGGGGSGGGGSGGGGSGGGGSEVQLVESGGGVVQPGGSLRLSCAASGFTFRSFGMSWVRQAPGKGPEWVSSISGSGSDTLYADSVKGRFTISRDNSKNTLYLQMNSLRPEDTALYYCTIGGSLSRSSQGTLVTVSSA
HepG2 on Incucyte Max % killing, 60 h: 98% | Huh7 on xCELLigence Max % killing, 60 h: 91%

HepG2 on Incucyte IC50 (M), human TDC, E:T 15:1, 60 h: 5.27e-10 M | Huh7 on xCELLigence IC50 (M), human TDC, E:T 15:1, 60 h: 5.86e-11 M
B5: A022600175 (protein)
chain: DVQLVESGGGVVQPGGSLRLSCVASGYVHKINFYGWYRQAPGKEREKVAHISIGDQTDYADSAKGRFTISRDESKNTVYLQMNSLRPEDTAAYYCRALSRIWPYDYWGQGTLVTVSSGGGGSEVQLVESGGGLVQPGGSLRLSCVASGFTFSSFAMTWVRRPPGKGLEWVATITNGGVTSYRDSVKGRFTISRDNAKNTLYLEMTSLNPEDTAVYICANARRTGPRAPTDIGSYRGQGTLVTVSSGGGGSGGGSEVQLVESGGGLVQPGGSLRLSCVASGSIFRSVFSSSTMEWYRQPPGKKRELVARIAPGDGTNYGALYADSVKGRFTISRDDAKKTVDLQMNSLKPEDTGVYFCASGVAWGQGTLVTVSSGGGGSGGGGSGGGGSGGGGSGGGGSGGGGSGGGGSEVQLVESGGGVVQPGGSLRLSCAASGFTFRSFGMSWVRQAPGKGPEWVSSISGSGSDTLYADSVKGRFTISRDNSKNTLYLQMNSLRPEDTALYYCTIGGSLSRSSQGTLVTVSSA
HepG2 on Incucyte Max % killing, 60 h: 96% | Huh7 on xCELLigence Max % killing, 60 h: 99%

HepG2 on Incucyte IC50 (M), human TDC, E:T 15:1, 60 h: 3.67e-10 M | Huh7 on xCELLigence IC50 (M), human TDC, E:T 15:1, 60 h: 1.98e-10 M | IC50 (M), xCELLigence human TDC assay on Hep-G2, E:T 15:1, 60 h: 7.3e-11 M | IC50 (M), xCELLigence human TDC assay on Huh-7, E:T 15:1, 60 h: 2.4e-11 M | IC50 (M), xCELLigence human TDC assay on NCI-H661, E:T 15:1, 75 h: 1.4e-10 M
B7: A022600168 (protein)
chain: DVQLVESGGGVVQPGGSLRLSCVASGYVHKINFYGWYRQAPGKEREKVAHISIGDQTDYADSAKGRFTISRDESKNTVYLQMNSLRPEDTAAYYCRALSRIWPYDYWGQGTLVTVSSGGGGSEVQLVESGGGLVQPGGSLRLSCVASGFTFSSFAMTWVRRPPGKGLEWVATITNGGVTSYRDSVKGRFTISRDNAKNTLYLEMTSLNPEDTAVYICANARRTGPRAPTDIGSYRGQGTLVTVSSGGGGSGGGGSGGGGSGGGGSGGGGSGGGGSGGGGSEVQLVESGGGLVQPGGSLRLSCVASGSIFRSVFSSSTMEWYRQPPGKKRELVARIAPGDGTNYGALYADSVKGRFTISRDDAKKTVDLQMNSLKPEDTGVYFCASGVAWGQGTLVTVSSGGGGSGGGGSGGGGSGGGGSGGGGSGGGGSGGGGSEVQLVESGGGVVQPGGSLRLSCAASGFTFRSFGMSWVRQAPGKGPEWVSSISGSGSDTLYADSVKGRFTISRDNSKNTLYLQMNSLRPEDTALYYCTIGGSLSRSSQGTLVTVSSA
HepG2 on Incucyte Max % killing, 60 h: 103% | Huh7 on xCELLigence Max % killing, 60 h: 107%

More lines, now with the values behind:

B3: A022600133 (protein)
chain: DVQLVESGGGVVQPGGSLRLSCVASGYVHKINFYGWYRQAPGKEREKVAHISIGDQTDYADSAKGRFTISRDESKNTVYLQMNSLRPEDTALYYCRALSRIWPYDYWGQGTLVTVSSGGGGSEVQLVESGGGLVQPGGSLRLSCVASGSIFRSVFSSSTMEWYRQPPGKKRELVARIAPGDGTNYGALYADSVKGRFTISRDDAKKTVDLQMNSLKPEDTGVYFCASGVAWGQGTLVTVSSGGGGSGGGGSGGGGSGGGGSGGGGSGGGGSGGGGSEVQLVESGGGLVQPGGSLRLSCVASGFTFSSFAMTWVRRPPGKGLEWVATITNGGVTSYRDSVKGRFTISRDNAKNTLYLEMTSLNPEDTAVYICANARRTGPRAPTDIGSYRGQGTLVTVSSGGGGSGGGGSGGGGSGGGGSGGGGSGGGGSGGGGSEVQLVESGGGVVQPGGSLRLSCAASGFTFRSFGMSWVRQAPGKGPEWVSSISGSGSDTLYADSVKGRFTISRDNSKNTLYLQMNSLRPEDTALYYCTIGGSLSRSSQGTLVTVSSA
IC50 (M), Incucyte human TDC HepG2-Nuclight green assay, E:T 15:1 (Step 2): 4.08e-10 M | Max % Killing, Incucyte human TDC HepG2-Nuclight green assay (Step 2): 92%

B4: A022600132 (protein)
chain: B5 chain with A92L
HepG2 on Incucyte IC50 (M), human TDC, E:T 15:1, 60 h: 6.83e-10 M | HepG2 on Incucyte Max % killing, 60 h: 83% | Huh7 on xCELLigence IC50 (M), human TDC, E:T 15:1, 60 h: 2.9e-10 M | Huh7 on xCELLigence Max % killing, 60 h: 95% | IC50 (M), Incucyte human TDC HepG2-Nuclight green assay, E:T 15:1 (Step 2): 7.02e-10 M | Max % Killing, Incucyte human TDC HepG2-Nuclight green assay (Step 2): 91%

B6: A022600134 (protein)
chain: DVQLVESGGGVVQPGGSLRLSCVASGYVHKINFYGWYRQAPGKEREKVAHISIGDQTDYADSAKGRFTISRDESKNTVYLQMNSLRPEDTALYYCRALSRIWPYDYWGQGTLVTVSSGGGGSEVQLVESGGGLVQPGGSLRLSCVASGSIFRSVFSSSTMEWYRQPPGKKRELVARIAPGDGTNYGALYADSVKGRFTISRDDAKKTVDLQMNSLKPEDTGVYFCASGVAWGQGTLVTVSSGGGGSGGGGSGGGGSGGGGSEVQLVESGGGLVQPGGSLRLSCVASGFTFSSFAMTWVRRPPGKGLEWVATITNGGVTSYRDSVKGRFTISRDNAKNTLYLEMTSLNPEDTAVYICANARRTGPRAPTDIGSYRGQGTLVTVSSGGGGSGGGGSGGGGSGGGGSGGGGSGGGGSGGGGSEVQLVESGGGVVQPGGSLRLSCAASGFTFRSFGMSWVRQAPGKGPEWVSSISGSGSDTLYADSVKGRFTISRDNSKNTLYLQMNSLRPEDTALYYCTIGGSLSRSSQGTLVTVSSA
IC50 (M), Incucyte human TDC HepG2-Nuclight green assay, E:T 15:1 (Step 2): 5.28e-10 M | Max % Killing, Incucyte human TDC HepG2-Nuclight green assay (Step 2): 92%
